How the values were obtained:
[1] = molecular target: recombinant human FcεRIα (human) (UniProt P12319); assay: SPR
[2] = molecular target: recombinant cynomolgus FcεRIα (cynomolgus monkey (Macaca fascicularis)); assay: SPR

Q: With “recombinant cynomolgus IgE Fc (Cε1-4) (domain or fragment)” as the substance, how does the Kd [1] read?
A: 0.00673 nM

Q: And the Kd [2]?
A: 1.4 nM

Q: For recombinant human IgE (antibody), which Kd [1] is on record?
A: 0.00839 nM

Q: And the Kd [2]?
A: 1 nM

— paper PMC11724247
